Target: T1, human MLH1 protein (hMLH1) (human, UniProt P40692 1-756, limits assumed)
T1 construct: Translated in vitro for the MBP-hPMS1 column assay
T1 sequence: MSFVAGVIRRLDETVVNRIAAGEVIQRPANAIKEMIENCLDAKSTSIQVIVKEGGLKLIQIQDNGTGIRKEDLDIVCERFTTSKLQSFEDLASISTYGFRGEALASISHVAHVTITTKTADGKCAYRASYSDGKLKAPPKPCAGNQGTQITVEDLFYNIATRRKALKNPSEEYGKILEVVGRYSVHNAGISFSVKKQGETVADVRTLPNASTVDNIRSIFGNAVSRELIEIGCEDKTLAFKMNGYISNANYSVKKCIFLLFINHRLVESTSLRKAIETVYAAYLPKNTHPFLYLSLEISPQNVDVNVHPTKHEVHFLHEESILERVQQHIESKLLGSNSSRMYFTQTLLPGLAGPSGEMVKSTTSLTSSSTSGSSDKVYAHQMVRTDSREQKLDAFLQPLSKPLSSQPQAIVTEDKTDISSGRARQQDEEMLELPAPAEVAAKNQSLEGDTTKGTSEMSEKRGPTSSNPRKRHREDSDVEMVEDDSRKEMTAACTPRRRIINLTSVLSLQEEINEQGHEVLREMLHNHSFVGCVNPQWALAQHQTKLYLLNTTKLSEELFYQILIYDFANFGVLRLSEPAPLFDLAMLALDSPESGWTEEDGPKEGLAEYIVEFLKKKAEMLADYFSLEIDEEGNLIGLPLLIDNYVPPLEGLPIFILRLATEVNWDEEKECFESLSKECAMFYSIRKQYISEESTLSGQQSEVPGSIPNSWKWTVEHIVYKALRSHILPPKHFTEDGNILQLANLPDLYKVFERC
Experiment: yeast two-hybrid system

B1: human PMS1 protein (hPMS1) (other)
chain: MERAESSSTEPAKAIKPIDRKSVHQICSGQVVLSLSTAVKELVENSLDAGATNIDLKLKDYGVDLIEVSDNGCGVEEENFEGLTLKHHTSKIQEFADLTQVETFGFRGEALSSLCALSDVTISTCHASAKVGTRLMFDHNGKIIQKTPYPRPRGTTVSVQQLFSTLPVRHKEFQRNIKKEYAKMVQVLHAYCIISAGIRVSCTNQLGQGKRQPVVCIGGSPSIKENIGSVFGQKQLQSLIPFVQLPPSDSVCEEYGLSCSDALHNLFYISGFISQCTHGVGRSSTDRQFFFINRRPCDPAKVCRLVNEVYHMYNRHQYPFVVLNISVDSECVDINVTPDKRQILLQEEKLLLAVLKTSLIGMFDSDVNKLNVSQQPLLDVEGNLIKMHAADLEKPMVEHQDQSPSLRIGEEKKDVSISRLREAFSLRHTTENKPHSPKTPEPRRSPLGQKRGMLSSSTSGAISDKGVLRSQKEAVSSSHGPSDPTDRAEVEKDSGHGSTSVDSEGFSIPDTGSHCSSEYAASSPGDRGSQEHVDSQEKAPETDDSFSDVDCHSNQEDTGCKFRVLPQPINLATPNTKRFKKEEILSSSDICQKLVNTQDMSASQVDVAVKINKKVVPLDFSMSSLAKRIKQLHHEAQQSEGEQNYRKFRAKICPGENQAAEDELRKEISKTMFAEMEIIGQFNLGFIITKLNEDIFIVDQHATDEKYNFEMLQQHTVLQGQRLIAPQTLNLTAVNEAVLIENLEIFRKNGFDFVIDENAPVTERAKLISLPTSKNWTFGPQDVDELIFMLSDSPGVMCRPSRVKQMFASRACRKSVMIGTALNTSEMKKLITHMGEMGHPWNCPHGRPTMRHIANLGVISQN
notes: Synthesized in vitro for the MBP column assay
Question: Does B1 bind?
Answer: binds
